Experimental findings from patent publication US20100233157A1 (published 2010) are described below.

The target of assay [1] is T1, Cynomolgus macaque Fas on the cell surface (cynomolgus macaque, UniProt Q9TSN4 26-331).
T1 construct: whole, on cells; also called Fas on cynomolgus macaque B cell line and PBL
T1 sequence (looked up): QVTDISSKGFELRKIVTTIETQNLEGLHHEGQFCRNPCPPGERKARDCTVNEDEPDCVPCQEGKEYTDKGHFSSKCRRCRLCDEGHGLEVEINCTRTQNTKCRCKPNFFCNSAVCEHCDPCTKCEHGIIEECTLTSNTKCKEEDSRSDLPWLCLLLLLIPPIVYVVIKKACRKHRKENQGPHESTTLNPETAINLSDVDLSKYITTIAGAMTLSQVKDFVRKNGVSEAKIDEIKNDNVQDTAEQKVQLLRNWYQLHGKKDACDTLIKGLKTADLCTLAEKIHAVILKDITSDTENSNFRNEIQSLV
Briefly: flow cytometry, cynomolgus macaque B cell line. From the text:
(§1) Reactivity of F45D9-γ1 or F45D9-γ4 mAb with Fas molecules of various species was initially screened using primary blood cells or lymphocytes cell lines. The binding of F45D9-γ1 or F45D9-γ4 mAb was explored by immunofluoresce staining and flow cytometry analysis, in human PBMC, purified human resting T cells, activated human T cells, peripheral blood lymphocytes (PBL) derived from BALE/c mice, rat, dog and pig, and in B cell lines or PBL derived from common marmoset, cynomolgus macaque, olive baboon, rhesus macaque and chimpanzee. Resting and activated human T cells were prepared as described in Example 7. B cells lines from monkeys were obtained from Biomedical Primate Research Center (Rijswijk, The Netherlands), and were cultured in RPMI 1640 medium supplemented with 2 mM glutamax, 100 UI/mL penicillin, 100 μg/mL streptomycin and 10% fetal bovine serum, at 37° C. and 5% CO₂. After washing in PBS cells (0.2−0.4×10⁶ cells/well) were incubated in staining buffer (PBS/1% FBS) containing F45D9-γ1 or human IgG control antibodies (10-20 ug/ml) in a 96-well U-bottom plate for 30 min on ice, in a 100 ul/well volume. Cells were then washed once with staining buffer, and further incubated for 30 min on ice with 1:30 dilution of FITC-conjugated rabbit F(ab′)₂ anti-human kappa (DakoCytomation Cat. F0434) or FITC-conjugated rabbit F(ab′)₂ anti-human IgG (DakoCytomation Cat. F0056). […]

For assay [2], the target named is T2, Rat Fas on the cell surface (rat, UniProt Q63199 22-324).
T2 construct: whole, on cells; also called Fas on rat peripheral blood lymphocytes
T2 sequence (looked up): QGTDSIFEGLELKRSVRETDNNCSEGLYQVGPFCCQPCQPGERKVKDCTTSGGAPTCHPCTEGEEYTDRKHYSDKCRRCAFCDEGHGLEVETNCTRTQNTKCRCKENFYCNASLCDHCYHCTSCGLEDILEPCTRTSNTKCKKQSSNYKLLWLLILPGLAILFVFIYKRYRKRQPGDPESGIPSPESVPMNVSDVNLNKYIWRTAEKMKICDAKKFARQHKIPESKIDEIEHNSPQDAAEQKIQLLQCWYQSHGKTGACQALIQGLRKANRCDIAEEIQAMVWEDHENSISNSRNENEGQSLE
Briefly: flow cytometry, rat peripheral blood lymphocytes.
Excerpt: as §1
Background: In flow cytometry, cells or beads pass a laser one at a time.

Assay [3] deals with T3, Chimpanzee Fas on the cell surface (chimpanzee, UniProt K6ZIR5 26-335).
T3 construct: also called Fas on chimpanzee B cell line
T3 sequence: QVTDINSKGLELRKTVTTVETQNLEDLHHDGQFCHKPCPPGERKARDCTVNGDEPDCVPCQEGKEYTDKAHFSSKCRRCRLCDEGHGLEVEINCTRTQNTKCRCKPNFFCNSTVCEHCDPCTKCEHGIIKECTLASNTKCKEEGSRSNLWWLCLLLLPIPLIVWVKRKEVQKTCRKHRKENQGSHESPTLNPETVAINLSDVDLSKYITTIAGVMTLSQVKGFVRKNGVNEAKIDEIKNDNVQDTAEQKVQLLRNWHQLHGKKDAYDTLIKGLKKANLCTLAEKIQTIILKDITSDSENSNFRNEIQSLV
Briefly: flow cytometry, chimpanzee B cell line.
Excerpt: as §1

For assay [4], the target named is T4, Mouse Fas on the cell surface (mouse, UniProt P25446 22-327).
T4 construct: whole, on cells; also called Fas on peripheral blood lymphocytes of BALB/c mice
T4 sequence (looked up): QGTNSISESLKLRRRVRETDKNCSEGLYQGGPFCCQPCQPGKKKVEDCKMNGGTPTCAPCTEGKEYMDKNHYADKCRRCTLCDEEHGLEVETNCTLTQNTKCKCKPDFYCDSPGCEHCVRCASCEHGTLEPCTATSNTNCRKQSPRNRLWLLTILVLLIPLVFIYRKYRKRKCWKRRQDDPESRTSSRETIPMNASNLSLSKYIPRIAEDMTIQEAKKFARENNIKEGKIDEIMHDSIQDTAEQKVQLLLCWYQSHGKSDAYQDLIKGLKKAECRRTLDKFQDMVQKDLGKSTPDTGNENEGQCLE
Briefly: flow cytometry, peripheral blood lymphocytes of mice.
Excerpt: as §1

Assay [5] concerns the target T5, Rhesus macaque Fas on the cell surface (rhesus macaque, UniProt Q9BDP2 26-333).
T5 construct: whole, on cells
T5 sequence (looked up): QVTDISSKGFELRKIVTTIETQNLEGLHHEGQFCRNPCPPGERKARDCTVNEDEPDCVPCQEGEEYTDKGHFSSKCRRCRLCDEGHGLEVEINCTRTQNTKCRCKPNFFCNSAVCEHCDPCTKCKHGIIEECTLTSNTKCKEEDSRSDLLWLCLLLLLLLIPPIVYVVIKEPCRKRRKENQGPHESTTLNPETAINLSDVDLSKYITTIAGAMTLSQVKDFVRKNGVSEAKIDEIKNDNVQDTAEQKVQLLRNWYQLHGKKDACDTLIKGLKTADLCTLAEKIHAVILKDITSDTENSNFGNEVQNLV
Briefly: flow cytometry, rhesus macaque B cell line.
Excerpt: as §1

The target of assay [6] is T6, Recombinant human soluble Fas receptor (PeproTech, Cat. 310-20) (human, UniProt P25445 17-173).
T6 construct: Bought soluble form; also called sFas; rFas
T6 sequence (looked up): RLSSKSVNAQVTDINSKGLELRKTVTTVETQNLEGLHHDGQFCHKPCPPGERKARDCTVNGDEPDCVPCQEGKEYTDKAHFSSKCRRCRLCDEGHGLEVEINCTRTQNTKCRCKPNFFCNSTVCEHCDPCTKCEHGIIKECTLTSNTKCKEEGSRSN
Briefly: SPR (BIAcore 3000), soluble Fas immobilized on CM5 chip; antibody form and model not given. On the technique in general: Surface plasmon resonance follows binding to a sensor surface in real time, without labels.

The target in assay [7] is T7, Pig Fas on the cell surface (pig, UniProt O77736 17-332).
T7 construct: whole, on cells; also called Fas on pig peripheral blood lymphocytes
T7 sequence (looked up): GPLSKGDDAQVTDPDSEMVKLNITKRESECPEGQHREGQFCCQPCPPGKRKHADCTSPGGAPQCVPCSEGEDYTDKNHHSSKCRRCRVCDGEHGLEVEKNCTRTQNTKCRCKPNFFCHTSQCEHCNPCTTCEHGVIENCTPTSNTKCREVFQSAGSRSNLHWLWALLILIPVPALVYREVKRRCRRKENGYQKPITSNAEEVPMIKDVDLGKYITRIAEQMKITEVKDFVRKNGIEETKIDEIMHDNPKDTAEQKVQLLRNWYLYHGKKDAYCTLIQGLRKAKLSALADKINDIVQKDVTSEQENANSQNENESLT
Briefly: flow cytometry, pig peripheral blood lymphocytes.
Excerpt: as §1

B1: F45D9 mAb (isotype not specified at the place) (antibody, V domains shown)
VH: QVQLQQWGAGLLKPSETLSLICAVYGGSFSTYYWTWIRQPPGKGLEWIGEINHRGTTNYSPSLKSRVTISVDTSKNHISLNLTSVTAADTALYYCARGLLWIGEGDYGLDVWGQGTTVTVSS
VL: DIQMTQSPSSLSASVGDRVTITCRASQGIRRWLAWYQQKPEKAPKSLIYAASSLQSGVPSRFSGSGSGTDFTLTISSLQPEDFATYYCQQYNSYPYTFGQGTKLEIKR
notes: also called F45D9 mAb's
What is called Kd is a measure of binding affinity in units of concentration. With B1, the binding result in assay [1] is given as “no binding”; in assay [2], “no binding (tested: 10-20 ug/ml)”; in assay [3], “binds”; in assay [4] it was “no binding (tested: 10-20 ug/ml)”; in assay [5] it was “no binding”; in assay [7], “no binding (tested: 10-20 ug/ml)”. In addition, the Ka in assay [6] stood at 6.5e+09 M⁻¹. The Kd in assay [6] amounted to 0.153 nM.
